# Experimental data as given in the RNAGym collection of RNA variant scans (doi:10.1073/pnas.2313332121).
# B1: TPR t1 (parent)
# chain: GACCAAUCUGCCCUCAGAGCUCGAGAACAUCUUCGGAUGCAGAGGAGGCAGGCUUCGGUGGCGCGAUAGCGCCAACGUCCUCAACCUCCAAUGCAUCCCACCACAUGAUGAUGCCUGAAGAGCCUUGGUUUUUUG
# Variants of: B1
# Test: polymerase ribozyme fitness, log enrichment relative to wild type (log ratio); higher = more active; in vitro selection for triplet polymerase activity
# Outline: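 Mutant libraries of both subunits of a heterodimeric triplet polymerase ribozyme were PCR-built, transcribed, and selected once in triplicate, with frozen incubation at −7 °C and capture of gel-excised extended constructs on streptavidin beads before RT-PCR. Illumina sequencing of input and output libraries was filtered to genotypes with ≥10 input reads and ≥1 read per output. Fitness is the logarithm of genotype enrichment over wild-type enrichment, using inverse-variance-weighted replicate averages. The logarithm is base 2.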
row,Variant,polymerase ribozyme fitness (log ratio)
1,A27U C72G U78A,-3.94
2,A27U C73U,-2.99
3,A27U C76U A100U G120C,-3.8
4,A27U C82G U106A G120C,-1.62
5,A27U C88U C102A,-5.16
6,A27U C89U,-2.8
7,A27U C94G,-5.02
8,A27U C94G C99G C104U G110U C114G,-6.8
9,A27U C97A,-7.67
10,A27U C97U U130C,-3.37
11,A27U C123G,-0.165
12,A27U C123U,-1.65
13,A27U C124U,-0.949
14,A27U G36C,-3.53
15,A27U G47C G48A U78C A95G,-5.5
16,A27U G47U C56U,-4.13
17,A27U G60A,-3.35
18,A27U G61C,-5.97
19,A27U G69U U132C,-1.95
20,A27U G71U C94A,-4.88
21,A27U G113U,-4.99
22,A27U G135C,-3.11
23,A27U U32A C72U C114A,-5.96
24,A27U U54A U112C G122A,-2.2

row,Variant,polymerase ribozyme fitness (log ratio)
1,A27U U78C,-2.98
2,A27U U87C,-2.89
3,A27U U96G G110U,-7.43
4,C28A A46U G77C A121C,-4.52
5,C28A A50C C82U C115A,-4.58
6,C28A A66C A111U C115G,-6.53
7,C28A A83U,-2.16
8,C28A A83U G110U,1.66
9,C28A C40G,-6.86
10,C28A C40G G44C G51A U112A,-6.79
11,C28A C62A,-5.73
12,C28A C72A,-3.59
13,C28A C72G C123U U125C,-4.42
14,C28A C85U,-4.56
15,C28A G35C G61A A84C A103G C114A G117C,-7.02
16,C28A G45A,-5.12
17,C28A G45U C72A C115A,-6.12
18,C28A G60A,-2.44
19,C28A G60A G110U G122A,-0.649
20,C28A G61C,-5.18
21,C28A G69C C124A,-4.58
22,C28A G71C C89G A121U C124A,-5.37
23,C28A G110A,-0.364
24,C28A G110C A119U,-1.42

row,Variant,polymerase ribozyme fitness (log ratio)
1,C28A G120C,-2.79
2,C28A U30G A43G G110C,-6.92
3,C28A U112C U116G U130A U132C,-5.19
4,C28A U132C,-4.37
5,C28G A41C C64U C115A,-2.93
6,C28G A50U,-4.17
7,C28G A83G,-3.41
8,C28G A111U,-2.62
9,C28G C31U G58A G63A G117C,-6.83
10,C28G C40A C94U G110C,-0.668
11,C28G C40U C86A,-3.65
12,C28G C53A C88U C124A,-1.3
13,C28G C70A,-4.55
14,C28G C72A,-3.15
15,C28G C73U A119G,-1.62
16,C28G C86A G120C,-2.11
17,C28G G44A A46G A90C,-4.5
18,C28G G44C G52U C73A G110A,-2.09
19,C28G G45U G52A G107C U109A C124A,-5.94
20,C28G G48U U92G C124A,-5.41
21,C28G G63A C73U,-3.78
22,C28G G69U A91G U116G,-5.08
23,C28G G71A A83G U87G A119U,-5.64
24,C28G G107C U109G,-6.09

row,Variant,polymerase ribozyme fitness (log ratio)
1,C28G G113C,-6.23
2,C28G G117A,-4.12
3,C28G U32C,-2.94
4,C28G U32C A91U C114U A119G,-6.71
5,C28G U54G C62U,-3.83
6,C28G U92G G117A A121G,-4.67
7,C28G U96A,-3.94
8,C28G U96A C97G G117C,-8.14
9,C28G U106A G117C,-5.9
10,C28U A37C G71U,-3.01
11,C28U A41G A121C,-0.919
12,C28U A43G G69U G113A,-1.82
13,C28U A46U G48A A95G C124G,-3.31
14,C28U A50U,-2.92
15,C28U A50U C70A U106A G110A C114A,-5.71
16,C28U A74U,-2.33
17,C28U A100C C102U U112C,-4.83
18,C28U A105U U112C,-4.9
19,C28U A119G,-1.04
20,C28U C40A C124U U130A,-3.36
21,C28U C49A G113C,-3.97
22,C28U C49U,-3.27
23,C28U C53A G93U,-4.15
24,C28U C56U C101U G120U,-2.65

row,Variant,polymerase ribozyme fitness (log ratio)
1,C28U C62A C124G U133G,-2.2
2,C28U C70U C88U,-3.74
3,C28U C72A,-2.49
4,C28U C73U U81A U106C,-3.5
5,C28U C79U,-1.61
6,C28U C86A,-2.8
7,C28U C123U,-0.507
8,C28U C124A U125A,-0.0946
9,C28U G36C C56U U81C G122U C124U U132C,-2.46
10,C28U G39A G45A G120A,-2.28
11,C28U G42U G44U G61U,-4.27
12,C28U G44C C79U C82U U126C G127U U129G,-3.26
13,C28U G44U U59A C89G,-4.37
14,C28U G45A,-2.04
15,C28U G45A C70U G113A A118U U131C,-4.94
16,C28U G45C,-3.26
17,C28U G45C C76A C89G G120C,-5.73
18,C28U G48U U78A,-3.25
19,C28U G52A C70U,-3.7
20,C28U G52A C73U,-2.19
21,C28U G52U,-2.88
22,C28U G57U,-1.3
23,C28U G60A,-2.05
24,C28U G60U,-1.24

row,Variant,polymerase ribozyme fitness (log ratio)
1,C28U G61A U112C U131A,0.223
2,C28U G61C U106A G113C,-5.31
3,C28U G77A U112G U125A,-3.35
4,C28U G110U,-1.44
5,C28U G113A,-2
6,C28U G113C,-3.57
7,C28U G127U,-2.17
8,C28U U32C G71A,-2.59
9,C28U U38A C79U C104A C124A U133G,-4.38
10,C28U U78C C101U,-2.49
11,C28U U96G,-2.43
12,C28U U112C U131A,-0.425
13,C28U U125A,-2.25
14,C28U U129A,-3.1
15,A29C A41C G61U,-3.33
16,A29C A84G U87A C104U C124G,-1.28
17,A29C C53U C80U A90G,-3.07
18,A29C C56A G71C U87A C98A C101U G110C,-6.81
19,A29C C56G C73A A119G,-3.16
20,A29C C62A C124G U129C,-3.09
21,A29C C62U C94A,-3.98
22,A29C C70U A118G,-2.26
23,A29C G36U A43U G44A G69U A121C,-2.34
24,A29C G57U G120U,-2.96

row,Variant,polymerase ribozyme fitness (log ratio)
1,A29C U106A,-1.93
2,A29G A37C A74G A111C,-1.06
3,A29G A37G U54G G69C,-7.29
4,A29G A41G,-1.22
5,A29G A41U,-1.6
6,A29G A41U A46C G63C,-5.41
7,A29G A43G G107U C124U,-6.92
8,A29G A46U G52U G57U C80U U87G C115G,-5.18
9,A29G A46U G52U G57U U87G C115G,-4.9
10,A29G A74U U109A C114U,-4.26
11,A29G A83C,-1.32
12,A29G C34A C40A U106G G113U U126C,-7.15
13,A29G C49G G71A U125G,-3.8
14,A29G C53G A95G,-2.04
15,A29G C70G G120A,-2.72
16,A29G C70U G93U,-3
17,A29G C73U,-1.55
18,A29G C88U,-1.2
19,A29G C101A,-3.99
20,A29G C115A,-0.195
21,A29G C123A,-0.494
22,A29G G42A G63A,-4.31
23,A29G G42C G45C C49A U106A,-4.8
